{"source": "paper PMC7487859", "key": {"[1]": {"tested_on": "PDGFRbeta (mouse, on 4T1 cells) (Mus musculus)", "test": "streptavidin-biotin cell binding assay", "details": "apparent Kd on intact 4T1 cells; Scr background subtracted; 2'-fluoro pyrimidines; 4T1 cells (2x10^4/well), 10-500 nM aptamer, 10 min, room temperature, BlockAid blocking solution with 1 mg/ml yeast tRNA and 1 mg/ml salmon sperm DNA; salt and …"}, "[2]": {"tested_on": "PDGFRbeta (human, on MDA-MB-231 cells) (Homo sapiens)", "test": "cell binding assay", "details": "intact MDA-MB-231 cells; 2'-fluoro pyrimidines; 10-500 nM aptamer, 10 min, room temperature, BlockAid blocking solution with 1 mg/ml yeast tRNA and 1 mg/ml salmon sperm DNA; salt; cited from earlier work"}}, "data": [{"substance": "Gint4.T", "values": [{"measurement": "Kd", "setting": "[1]", "value": 76.8, "unit": "nM"}]}, {"substance": "Gint4.T (as in cited ref 31)", "values": [{"measurement": "Kd", "setting": "[2]", "value": 57.5, "unit": "nM"}]}]}
